Assay [1] concerns the target human glucagon receptor (hGCGR) (human, UniProt P47871 26-477). The assay can be described thus: cell-based or functional assay.
For assay [2], the target named is human GLP-1 receptor (hGLP-1R) (human, UniProt P43220 24-463). Put plainly: cell-based or functional assay.

The source of these data is patent publication US20230357348A1 (AstraZeneca / MedImmune, published 2023).

Starred links: 1 amine or outer side, 2 acyl side, 3 side chain; linkers in the order of their positions; H or OH if unused. Non-standard residues stand in square brackets, D forms with d. Groups on a side chain read outwards from the residue. No end group written: not given here. *: point of attachment. C20 diacid = O=C(O)CCCCCCCCCCCCCCCCCCC(=O)*; C18 diacid = O=C(O)CCCCCCCCCCCCCCCCC(=O)*; γGlu = O=C(O)[C@H](CCC(=O)[*:2])N[*:1]; αMeF = C[C@](N)(Cc1ccccc1)C(=O)O; AEEA = NCCOCCOCC(=O)O; Aib = CC(C)(N)C(=O)O

human glucagon receptor (hGCGR), sequence (P47871 26-477): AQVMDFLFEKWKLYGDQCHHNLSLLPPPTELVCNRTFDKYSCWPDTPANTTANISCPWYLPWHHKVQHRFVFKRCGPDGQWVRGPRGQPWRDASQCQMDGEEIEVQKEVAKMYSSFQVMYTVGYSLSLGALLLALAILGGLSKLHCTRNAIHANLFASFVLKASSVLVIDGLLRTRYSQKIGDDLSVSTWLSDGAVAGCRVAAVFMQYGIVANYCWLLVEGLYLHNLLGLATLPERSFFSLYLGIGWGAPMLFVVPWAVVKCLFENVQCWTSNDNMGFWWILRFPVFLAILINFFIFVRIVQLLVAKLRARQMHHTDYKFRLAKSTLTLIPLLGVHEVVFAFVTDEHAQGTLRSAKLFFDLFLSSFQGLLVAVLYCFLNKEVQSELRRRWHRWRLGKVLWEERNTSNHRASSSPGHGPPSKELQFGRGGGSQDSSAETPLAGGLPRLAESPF

B1: Peptide 454 (peptide)
peptide: H[Aib]QGTFTSDVSK[αMeF]LDKK([AEEA-AEEA-γGlu-C20 diacid])RAQDFVRWLEA[Aib]G-NH2
modifications: N-terminus assumed
SMILES: CC(C)C[C@H](NC(=O)[C@H](Cc1c[nH]c2ccccc12)NC(=O)[C@H](CCCNC(=N)N)NC(=O)[C@@H](NC(=O)[C@H](Cc1ccccc1)NC(=O)[C@H](CC(=O)O)NC(=O)[C@H](CCC(N)=O)NC(=O)[C@H](C)NC(=O)[C@H](CCCNC(=N)N)NC(=O)[C@H](CCCCNC(=O)COCCOCCNC(=O)COCCOCCNC(=O)CC[C@H](NC(=O)CCCCCCCCCCCCCCCCCCC(=O)O)C(=O)O)NC(=O)[C@H](CCCCN)NC(=O)[C@H](CC(=O)O)NC(=O)[C@H](CC(C)C)NC(=O)[C@](C)(Cc1ccccc1)NC(=O)[C@H](CCCCN)NC(=O)[C@H](CO)NC(=O)[C@@H](NC(=O)[C@H](CC(=O)O)NC(=O)[C@H](CO)NC(=O)[C@@H](NC(=O)[C@H](Cc1ccccc1)NC(=O)[C@@H](NC(=O)CNC(=O)[C@H](CCC(N)=O)NC(=O)C(C)(C)NC(=O)[C@@H](N)Cc1c[nH]cn1)[C@@H](C)O)[C@@H](C)O)C(C)C)C(C)C)C(=O)N[C@@H](CCC(=O)O)C(=O)N[C@@H](C)C(=O)NC(C)(C)C(=O)NCC(N)=O
For the molecule B1, the “hGluc-R EC50 (pM)” value in assay [1] came out at 274 pM. For the same molecule, the “hGLP-1R EC50 (pM)” value in assay [2] amounted to 173 pM.

B2: Peptide 452 (peptide)
peptide: H[Aib]QGTFTSDVSK[αMeF]LDKK([AEEA-AEEA-γGlu-C20 diacid])RALDFVRWLL[Aib]E-NH2
modifications: N-terminus assumed
SMILES: CC(C)C[C@H](NC(=O)[C@H](C)NC(=O)[C@H](CCCNC(=N)N)NC(=O)[C@H](CCCCNC(=O)COCCOCCNC(=O)COCCOCCNC(=O)CC[C@H](NC(=O)CCCCCCCCCCCCCCCCCCC(=O)O)C(=O)O)NC(=O)[C@H](CCCCN)NC(=O)[C@H](CC(=O)O)NC(=O)[C@H](CC(C)C)NC(=O)[C@](C)(Cc1ccccc1)NC(=O)[C@H](CCCCN)NC(=O)[C@H](CO)NC(=O)[C@@H](NC(=O)[C@H](CC(=O)O)NC(=O)[C@H](CO)NC(=O)[C@@H](NC(=O)[C@H](Cc1ccccc1)NC(=O)[C@@H](NC(=O)CNC(=O)[C@H](CCC(N)=O)NC(=O)C(C)(C)NC(=O)[C@@H](N)Cc1c[nH]cn1)[C@@H](C)O)[C@@H](C)O)C(C)C)C(=O)N[C@@H](CC(=O)O)C(=O)N[C@@H](Cc1ccccc1)C(=O)N[C@H](C(=O)N[C@@H](CCCNC(=N)N)C(=O)N[C@@H](Cc1c[nH]c2ccccc12)C(=O)N[C@@H](CC(C)C)C(=O)N[C@@H](CC(C)C)C(=O)NC(C)(C)C(=O)N[C@@H](CCC(=O)O)C(N)=O)C(C)C
As to B2, in assay [1], the “hGluc-R EC50 (pM)” value stood at 151 pM. In addition, the “hGLP-1R EC50 (pM)” value in assay [2] is 495 pM.

B3: Peptide 455 (peptide)
peptide: H[Aib]QGTFTSDVSK[αMeF]LDKK([AEEA-AEEA-γGlu-γGlu-C20 diacid])RAQDFVRWLL[Aib]E-NH2
modifications: N-terminus assumed
SMILES: CC(C)C[C@H](NC(=O)[C@H](Cc1c[nH]c2ccccc12)NC(=O)[C@H](CCCNC(=N)N)NC(=O)[C@@H](NC(=O)[C@H](Cc1ccccc1)NC(=O)[C@H](CC(=O)O)NC(=O)[C@H](CCC(N)=O)NC(=O)[C@H](C)NC(=O)[C@H](CCCNC(=N)N)NC(=O)[C@H](CCCCNC(=O)COCCOCCNC(=O)COCCOCCNC(=O)CC[C@H](NC(=O)CC[C@H](NC(=O)CCCCCCCCCCCCCCCCCCC(=O)O)C(=O)O)C(=O)O)NC(=O)[C@H](CCCCN)NC(=O)[C@H](CC(=O)O)NC(=O)[C@H](CC(C)C)NC(=O)[C@](C)(Cc1ccccc1)NC(=O)[C@H](CCCCN)NC(=O)[C@H](CO)NC(=O)[C@@H](NC(=O)[C@H](CC(=O)O)NC(=O)[C@H](CO)NC(=O)[C@@H](NC(=O)[C@H](Cc1ccccc1)NC(=O)[C@@H](NC(=O)CNC(=O)[C@H](CCC(N)=O)NC(=O)C(C)(C)NC(=O)[C@@H](N)Cc1c[nH]cn1)[C@@H](C)O)[C@@H](C)O)C(C)C)C(C)C)C(=O)N[C@@H](CC(C)C)C(=O)NC(C)(C)C(=O)N[C@@H](CCC(=O)O)C(N)=O
On to B3, for which the “hGluc-R EC50 (pM)” value in assay [1] amounted to 114 pM. Further, the “hGLP-1R EC50 (pM)” value in assay [2] stood at 127 pM.

B4: Peptide 451 (peptide)
peptide: H[Aib]QGTFTSDVSK[αMeF]LDKK([AEEA-AEEA-γGlu-C20 diacid])RARDFVLWLL[Aib]E-NH2
modifications: N-terminus assumed
SMILES: CC(C)C[C@H](NC(=O)[C@H](Cc1c[nH]c2ccccc12)NC(=O)[C@H](CC(C)C)NC(=O)[C@@H](NC(=O)[C@H](Cc1ccccc1)NC(=O)[C@H](CC(=O)O)NC(=O)[C@H](CCCNC(=N)N)NC(=O)[C@H](C)NC(=O)[C@H](CCCNC(=N)N)NC(=O)[C@H](CCCCNC(=O)COCCOCCNC(=O)COCCOCCNC(=O)CC[C@H](NC(=O)CCCCCCCCCCCCCCCCCCC(=O)O)C(=O)O)NC(=O)[C@H](CCCCN)NC(=O)[C@H](CC(=O)O)NC(=O)[C@H](CC(C)C)NC(=O)[C@](C)(Cc1ccccc1)NC(=O)[C@H](CCCCN)NC(=O)[C@H](CO)NC(=O)[C@@H](NC(=O)[C@H](CC(=O)O)NC(=O)[C@H](CO)NC(=O)[C@@H](NC(=O)[C@H](Cc1ccccc1)NC(=O)[C@@H](NC(=O)CNC(=O)[C@H](CCC(N)=O)NC(=O)C(C)(C)NC(=O)[C@@H](N)Cc1c[nH]cn1)[C@@H](C)O)[C@@H](C)O)C(C)C)C(C)C)C(=O)N[C@@H](CC(C)C)C(=O)NC(C)(C)C(=O)N[C@@H](CCC(=O)O)C(N)=O
For the molecule B4, the “hGluc-R EC50 (pM)” value in assay [1] was 503 pM. In addition, in assay [2], the “hGLP-1R EC50 (pM)” value turned out to be 895 pM.

Take H[Aib]QGTFTSDVSK[αMeF]LDKK([AEEA-AEEA-γGlu-C20 diacid])RAQDFVRWLLE[Aib]G-NH2 [Peptide 453]: the “hGluc-R EC50 (pM)” value in assay [1] was 162 pM. Besides, the “hGLP-1R EC50 (pM)” value in assay [2] came out at 170 pM.

B5: Peptide 450 (peptide)
peptide: H[Aib]QGTFTSDVSK[αMeF]LDKK([AEEA-AEEA-γGlu-γGlu-C18 diacid])RAQDFVRWLLE[Aib]G-OH
modifications: N-terminus assumed
SMILES: CC(C)C[C@H](NC(=O)[C@H](Cc1c[nH]c2ccccc12)NC(=O)[C@H](CCCNC(=N)N)NC(=O)[C@@H](NC(=O)[C@H](Cc1ccccc1)NC(=O)[C@H](CC(=O)O)NC(=O)[C@H](CCC(N)=O)NC(=O)[C@H](C)NC(=O)[C@H](CCCNC(=N)N)NC(=O)[C@H](CCCCNC(=O)COCCOCCNC(=O)COCCOCCNC(=O)CC[C@H](NC(=O)CC[C@H](NC(=O)CCCCCCCCCCCCCCCCC(=O)O)C(=O)O)C(=O)O)NC(=O)[C@H](CCCCN)NC(=O)[C@H](CC(=O)O)NC(=O)[C@H](CC(C)C)NC(=O)[C@](C)(Cc1ccccc1)NC(=O)[C@H](CCCCN)NC(=O)[C@H](CO)NC(=O)[C@@H](NC(=O)[C@H](CC(=O)O)NC(=O)[C@H](CO)NC(=O)[C@@H](NC(=O)[C@H](Cc1ccccc1)NC(=O)[C@@H](NC(=O)CNC(=O)[C@H](CCC(N)=O)NC(=O)C(C)(C)NC(=O)[C@@H](N)Cc1c[nH]cn1)[C@@H](C)O)[C@@H](C)O)C(C)C)C(C)C)C(=O)N[C@@H](CC(C)C)C(=O)N[C@@H](CCC(=O)O)C(=O)NC(C)(C)C(=O)NCC(=O)O
Take B5: in assay [1], the “hGluc-R EC50 (pM)” value was 57.8 pM. Also, the “hGLP-1R EC50 (pM)” value in assay [2] turned out to be 57.3 pM.
